Results reported in publication PMC3787391.

Target: ligated complex of zebrafish PlexinC1_(cyto) and human Rap1B with the 24-residue linker and the LPETGG sortase recognition motif (human | zebrafish) (UniProt P61224)
Assay: AUC; sedimentation velocity, with 2 mM AlFx; 0.5, 4, 8 and 20 μM; 10 mM Tris pH 8, 50 mM NaCl, 2 mM TCEP, 2 mM MgCl2; 20°C, 42,000 rpm; c(s) analysis; monomer to dimer

stoichiometry N: 2
Substance: ligated complex of zebrafish PlexinC1_(cyto) and human Rap1B with the 24-residue linker and the LPETGG sortase recognition motif (from UniProt P61224 2-166; A0A8M3ARP5 552-1147)
